Test: yeast display, Sf9 membrane polyspecificity reagent, FACS + sequencing; frameworks hold sequencing errors
Outline: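 Nanobodies from a synthetic yeast display library (Saccharomyces cerevisiae BJ5465), induced 36–48 hours with galactose, were stained 1 hour at 4 °C with 10% biotinylated, detergent-solubilized Sf9 membrane reagent, enriched on streptavidin microbeads, then FACS-sorted. Anti-HA (expression) and streptavidin (reagent binding) fluorescence set low and high (top ~1%) gates. Polyreactivity labels come from the gate of origin. Genes were colony-PCR amplified, MiSeq 2 × 250 sequenced and filtered by CDR length.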

Row | Sequence | polyreactivity (PSR sort gate)
1 | QVQLVESGGGLVQAGGSLRLSCAASGSTLSVNAMGWYRQAPGKERELVAAIDFDGGDTYYADSVKGRFTISRDNAKNTVYLQMKSLKPEDTAVYFCAADIGGQYDYLADDYWGQGNQVTVSS | low polyreactivity
2 | QVQLVESGGGLFQAGGSLRLICAASGSTFLNNAMGWYRQAPGKERELVAAISYRGGSTYYADSVKGRFTISRDNAKNTVYLQMNSLKPEDTAVYYCAAEVTRFWWRSPYDYNYWGQGTQVTVSS | high polyreactivity
3 | QVQLVESGGGLVQAGGSLRLSCAASGIIFRWYGMGWYRQAPGKERELVATITSGGRTNYADSVKGRFTISRDNAKNTGYLQMHSLKPEDTAVYYCAAARLFAMDYWGQGTQVTVSS | low polyreactivity
4 | QVQLVESGGGLVQAGGSLRLSCAASGFIFYDYVMGWYRQAPGKERELVAAISASGGSTYYADSVKGRFTISRDNAKNTVYLQMNCLKPEDTAVYYCNARPKYDSGHYYWGQGTQVTVSS | high polyreactivity
5 | QVQLVESGVCLVQAGGSLRLSCAATGFTIKYYAMGWYRQPPGKEMELVAAISWTGANTYYADSVKGRFTISRDNAKNTVYLQMNSLKPDYTAVYYCAAGYLIGHSVRTTVRTIYEYWGQGTQVTVSS | high polyreactivity
6 | QVQLVESGGGLVQAGGSLRLSCAASGRIFKNYAKGWYRQAPGKERELVAAISWSGGRTYYSDSVKGRFTISRDNAKNTVYLQMNSLKPEYTAVYYCAARFRRTRVTYYYWGQGTQVTVSS | high polyreactivity
7 | QVQLVESGGGLVQAGGSLRLSCAASGRIFAYYAMGWYRQAPGKERELVAAISGGGGSTYYADSVKGRFTISRDNAKNTVYLQMNSLKPEDTAVYFCAAKSSRYDYYYWGHGTQVTVSS | high polyreactivity
8 | QVQLVESGGGLVQAGASLRISCAASGRIFGRNAMGWYRQEPGIEREFVARIRTSGGSTYNADSVKGRFTISRDNAKNTVYLQMNSLKPEDTAVYYCAAAVYTSARGYDYWGQGTQVTLSS | high polyreactivity
9 | QVQLVESGAGLVQAGGSLRLSCAASGSTFDSYVMGWYRQAPGKERDLVAAISRRGGSTYYADSVKGRFTISRDNAKNSVYLQMNSLKPEDTAVYYCARTVGYRTLLESDSWGQGTQVTVSS | high polyreactivity
10 | QVQLVESGGGLVQAGGSLRLSCASSGRIFYYYAMGWYRQAPGKEREFVARNRSSGGSTYADSVKGRFTISRDNAKNTVYLQMNSLKPEDTAVYYCARDGYTAVEYDYWGQGTQVTVSS | low polyreactivity
11 | QVQLVESGGGLVQPGGSLRLSCAASGSIFIVYAMGWYRQAPGQERELVAGISVRTGSTYYADSVKGRFTISRDNAKNTGYLQMNSLKPEDTAVYYCAAPGYTGLGRNYWGQGTQVTVSS | low polyreactivity
12 | QVQLVESGGGLVQAGGSLRLICAASGSIFLNYAMGWYRQAPGKERELVASLRRIGGRTFYADSVKGSFTISRDNAKNTVYLQMNSLKPEDTAVYYCAAEYYYGLTVEYWGQGTQVTVSS | high polyreactivity
13 | QVQLVESGGGLVQAGGSLRLSCAASGRIFYGNAMGWYRQAPGKERELVAVITSSGGSTYYADSVKGRFTISRDNAKNTVYLQMNSLKPEDTAVYYCAKYYRHWYTHLGYDYWGQGTQVTVSS | high polyreactivity
14 | QVQIVESGGGLVQAAGSLRLSCAASGRTFGYYAMGWYREAPGKEREMVAAITSCGRNTYYADTVKGRFTISRDNAKNNVYLQMNRLKPEDTAVYYCNTVYHAYWGKCVNYWGQGTQVTVSS | high polyreactivity
15 | QVQLVESGGGLVQAGGSLRLSCAASGSTFNAYAMGWYRQAPGKERELVAVISSSGGRTYYADSVKGSFTISRDNAKNTVYLQMNSLKPEDTAVYYCNADVKYRYNHWGQGTQVTLSS | high polyreactivity
16 | QVQLVESGGGLVQAGGSLRLSCAASGSIFSFYTMGWYRQAPGKERELVASISRSGGTTYYADSVKGRFTISRDNAKNTVYLQMNSLKPEDTAVYYCAVRQAKYGGAYYGYYYWGQGTQVTVSS | high polyreactivity
17 | QVQLVESGGGLVQAGGSLRLSCAASGRIGTYAMGWYRQAPGKERELVAGIRSGGSTYYADSVKGRFTISRDNAKNTVYLQLNSLKPEDTAVYYCAADRGYRGATGKYDSWGQGTQVTVSS | high polyreactivity
18 | QVQLVESGGGLVQAGGSLRLSCAASGFTFGYNTMGWYRQAPGNERELGAAISWRGGSTFYADSVKGRFTISRDNAKNTVYLQMNSLKPEDTAVYYCNVLRLDQRYPSLRDDWGQGTQVTVSS | high polyreactivity
19 | QVQLVDTGGGLVQAGGSLRLSCAASGSIFHNNSRGWYRQATGKERELVAAIRRSGGSTSYADSVKGRFTISLDNAKNTVYLQMNSLKPEDTAVYYCNKRFVRFSPEYGYWGQGNQVTVSS | low polyreactivity
20 | QVQLVESGGGLVQAGGSLRLSCAASGSIFGVYAMGWYRQAPGKERELVARISGSSGSTRYSDSVKGRFTISRDNAKNTVYLQMNSLKPEDTAVYYCAARAIFRQGDRIYDSWGQGTQVTVSS | high polyreactivity

Row | Sequence | polyreactivity (PSR sort gate)
21 | QVQLVESGGGLVQAGGSLRLSCAASGRIYYYAMGWYRQAPGKERELVAAISRGGSTKYADSVKGRFTISRDNAKNTVYLQMNSLKPEETAVYYCAAGGTVYRYDYWGQGTQVTVSS | low polyreactivity
22 | QVQLVESGGGLVQAGGSLRLSCAASGFTFYANAMGWYRQAPGKERELVAAIDESGTSTNYADSVKGRFTISRDNAKNTVYLQMNSQKPEDTAVYYCAADGNSTGVYLDGGEGFAYDYWGHGTQVTVSS | low polyreactivity
23 | QVQLVESGGGLVQAGGSLRLSCAASGSTFAGNAMGWYRQAPGKEREFVAAITISVGSTYYADSVKGRFTISRDNAKNTVYLQMNSLTPEDTAVYYCAADFAYYVSLPSRFVYAGYYYWGQGTQVTVTS | low polyreactivity
24 | QVQLVESGGGLVQAGGSLRLSCAASGIIFSPNAMGWYRQAPGKEMELVAGISSGGSTYYADSVKGRFTISRDNAKNTVYFQMNSLKPEDTAVYYCNRGWAHSNAKFDYWGQGTQVTVSS | high polyreactivity
25 | QVQLVESGGGLVQAGGSLRLSCAASGSIFVGNAMGWYRQAPGKERELVAAINSGGSTNYADSVKGRFTISRDNAKNTVYLQMNSLKTEDTAVYYCAADDDYCRILQGDQSDDYWGQGTQVTVSS | low polyreactivity
26 | QVQLVESGGGLVQAGGSLRLSCAASGSTFYLYAMGWYRQAPGKEREFVAAISWSGGRTYYAYSVKGRFTISRDNAKNTVYLQMNSLKPEDTAVYYCAARRRYTWQYTRYDMGYWGQGTQVTVSS | low polyreactivity
27 | QVQLVESGGGLVQAGGSLRLSCAASGSIFGEYAMGWYRQAPGKERELVATIRQSGDSTYYAVSVKGRFTISRDTAKNTVYLQMNSLKPEDTAVYYCAADLWLYDYYSEYDYWGPGTQVTVSS | low polyreactivity
28 | QVQLVESGGCLVQAGGSLRLSCAASGLIFYENAMGWYRQAPGKERELVAAINYDGDSTYYADSVKGRFTISRDNAKITVYLQMNSLKPEDTAVYYCAADGGWVLFWMDYWGQGTQVTVSS | low polyreactivity
29 | QVQLVDSGGGLVQAGGSLRLSCAASGSIFRYNAMGWYREAPGKERVLVAAISWNGARTYYADSVKGRFTISRDNAKNTVYLQMNSLKPEDTAVYYCNAGTFTRRRGLDYWGQGTQVTGSS | low polyreactivity
30 | QVQLVESGGGLVQAGGSLRLSCAASVRTFLYNAMGWYRQAPGKERELVASITTSGGSTYYADSVKGRFTISRDNAKNTVYLQMNSLKPEDTAVYYCAAGLPKWYDYGRLVKYNYWGQGTQVTVSS | low polyreactivity
31 | QVQLVESGGGLVQAGGSLRLSCAASGSIFDTYAMGWYRQAPGKERELVAAITWGGGRTYYADSVKGRFTISRDNAKNTVYLQMNSLKPEDTAVYYCAARWRLRGGNQRYGYWGQGTQVTVSS | high polyreactivity
32 | QVQLVESGGGLVQAGGSLRLSCAASRFTFVHYAMGWYRQAPGKERELVAAISRSGGSTYCADSVKGRFTISRDNAKNTVYLQMNSLKPEDTAVYYCAASRGSYEVVYWGQGTQVTVSS | high polyreactivity
33 | QVQLVESGGGLVQAGGSLRLSCAPSGIIAKHNAMGWYRQAPGKERELVAAITSGSITNYADSVKGRFTISRDNAKNTLYLQMNSLKPEDTAVYYCAKRVDAYGWWGRRSGVLSDYWGQGTQVTVSS | low polyreactivity
34 | QVQLVESGGGLVQAGGSLRLSCAASGSIFRFYTMGWYRQAPGKQRELVAAISASGGNTYYADSVKGRFTISRDNAKNTVYLQMNSLKPEDTAVYYCARVKFTKYDYWGQGTQVTVSS | high polyreactivity
35 | QVQLVESGGGLVQAGGSLRLSCAASGSIFGSNTMGWYRQAPGKEREFVAAISFSGGSTYYADSVKGRFTISRDNAKNTVYLQLNSLKPEDTAVYYWAARQSRVGTSFYYSRRDYWGQGTEVTVSS | high polyreactivity
36 | QVQLVESGGGLVQAGGSLRLSCAASGSIFGYYSMGWYRQATGKERELVATITWGGGSTYADSVKGRFTISRDNAKNTVYLQMNSLKPEDTAVYYCNAGYRYTSAQVTWEYDYWGQGTQVTVSS | low polyreactivity
37 | QVQLVESGGGLVQAGGSLRLSCAASGSIVYANTMGRYRQAPGKERELVAAIRSVGRTYYADSVKGRFTISRDNAKNTVYLQMNSLKPADTAVYYCAADPRSYFTSEYWGQGTQVTVSS | low polyreactivity
38 | QVQLVESGGGLVLAGGSLRLSCAASGNILIGNVMGWYRPAPGKERELVAAITSGGDTYYADSVKGRFTISRDNAKNTVYLQMNSLNPEDTAVYYCAADRPGQPKYEYWRQGTQVTVSS | low polyreactivity
39 | QVQLVESGGGLVQAGGSLRLSCAASGITLTKYGMGWYRQAPGKERELVAAISGSGGSTYYADSVKGRFTISRDNAKNTVYLQMNSLKPEDTAVYYCAARALYPRYYYWGQGTQVTVSS | high polyreactivity
40 | QFQLVESGGGLVQAGGSLRLSCAASGITFKTYAMGCYRQAPGKERELFATINRGSRTNYADSVKGRFTISRDNAKNTVYLQMNSLKPEDTAVYYCAAHYTTFIPSPDGDYLGQGTQVTVSS | low polyreactivity
